This is an account of results in publication PMC4063869, “Structure of CbpA J-Domain Bound to the Regulatory Protein CbpM Explains Its Specificity and Suggests Evolutionary Link between CbpM and Transcriptional Regulators” (PLoS ONE, 2014).

As usually defined, the Kd is a measure of binding affinity in units of concentration. A low value points to higher affinity. The term stoichiometry N denotes the number of molecules, sites or subunits per partner or assembly.

Series [1] addresses Klebsiella pneumoniae CbpM (residues 2-101) (Klebsiella pneumoniae (strain ATCC 700721/MGH 78578)). As to the kind of experiment: crystal structure; K. pneumoniae CbpM with E. coli CbpA^Jdom, complex separated from excess CbpA^Jdom on Superdex 75; hanging drop, 0.1 M HEPES pH 7, 20% (w/v) PEG 8K; 1.87 Å.
In series [2] the target is T1, CbpM (residues 2-101), species not named for the experiment ( (E. coli K-12 or K. …, UniProt P63264 2-101)).
T1 construct: CbpM residues 2-101; the immobilisation is told there; also called immobilized CbpM; source: E. coli Rosetta pLysS, purified (Ni-NTA, tag cleaved, amylose resin, size exclusion); not shown: His-MBP, N-terminal, cleaved
T1 sequence: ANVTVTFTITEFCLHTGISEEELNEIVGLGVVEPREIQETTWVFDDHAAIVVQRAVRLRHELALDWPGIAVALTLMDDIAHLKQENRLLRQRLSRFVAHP
As to the kind of experiment: SPR; CbpM immobilised, DnaJ^Jdom variants injected (50 µL/min, 120 s); ProteOn XPR36, 25°C, 50 mM sodium phosphate pH 7.4, 100 mM NaCl, 1 mM DTT, 0.005% Tween 20; steady-state equilibrium fit (one site). The following applies: both partners purified.

Series [3] concerns the molecule itself. As to the kind of experiment: crystal structure; K. pneumoniae CbpM with E. coli CbpA^Jdom, complex separated from excess CbpA^Jdom on Superdex 75; hanging drop, 0.1 M HEPES pH 7, 20% (w/v) PEG 8K; 1.87 Å.

Take “J-domain of E. coli CbpA (CbpA^Jdom) (domain or fragment)”: in series [1], the stoichiometry N (binder:target chains (printed 2:2)) is 1.

B1: Chimeric DnaJ^Jdom(25-47): DnaJ J-domain with the central region Y25-F47 replaced by that of CbpA^Jdom (domain or fragment, E. coli, UniProt P08622 2-79, looked up)
chain: AKQDYYEILGVSKTAEEREIRKAYRRLARKYHPDVSKEPDAEARFKEIKEAYEVLTDSQKRAAYDQYGHAAFEQGGM
notes: DnaJ of E. coli, J-domain, residues 2-79, with residues 25-47 replaced by residues 25-46 of E. coli CbpA; also called chimera DnaJ^Jdom (25-47); source: E. coli Rosetta pLysS, purified (glutathione sepharose, tag cleaved, size exclusion); not shown: GST, N-terminal, cleaved
B1 showed a Kd in series [2] of 26 µM.

B2: Klebsiella pneumoniae CbpM (residues 2-101) (natural protein, UniProt A0A378AXB4 2-101, looked up)
chain: ATVTVTFTITELCLRTGVSEEELTEIVGLGMIEPHQPQADTWLFDDSAVTIVHRAVRLRNELELDWPGIAVALTLLDENARLTRENRLLQQRLARFLAHG
notes: CbpM of Klebsiella pneumoniae (strain ATCC 700721/MGH 78578), residues 2-101, amplified from genomic DNA; Forms a parallel coiled-coil dimer in the crystal; each CbpA J-domain touches both subunits; also called K. pneumoniae CbpM; Klebsiella CbpM; source: E. coli Rosetta pLysS, purified (Ni-NTA, tag cleaved, amylose resin, size exclusion); not shown: His-MBP, N-terminal, cleaved
In the case of B2, in series [3], the “stoichiometry N” value was found to be 2.
